From patent US20150225755A1, “Ergothioneine Production Through Metabolic Engineering” (priority 2012, published 2015)

Columns and labels:
[1] = system: C[N+](C)(C)[C@@H](Cc1cnc[nH]1)C(=O)[O-]; assay: OvoA activity, oxygen consumption assay / kinetic analysis; type: biochemical, Erwinia tasmaniensis; details: other: air-saturated HEPES buffer; coupling with Cys
Description: (§1) Two different assays were developed for both EgtB and OvoA catalysis (FIG. 3). Both EgtB and OvoA are proposed to be oxidases,^[9-10] which catalyze the oxidative coupling between His and Cys to form the C—S bond. At the same time, sulfur is oxidized to sulfoxide. The overall process is a four-electron oxidation process (FIG. 1) similar to the case of the isopenicillin N synthase.^[12] In the initial report by Seebeck, they monitored the reaction by monitoring the absorption changes at 260 nm because the oxidative products (3 or 6, FIG. 1) have absorptions in this region. However, it is not very sensitive. Oxygen is needed because there was no detectable product formation under anaerobic conditions. Based on this feature, we developed the EgtB and OvoA activity assays by monitoring the oxygen consumption rate (FIG. 3-I-B) using the NeoFoxy oxygen electrode (FIG. 3-I-A). This assay (FIG. 3-I-B) was used as the routine assay to optimize the conditions for EgtB and OvoA activities.
(§2) For oxygenase or oxidase-catalyzed reaction, potential problems include the presence of side-reactions, non-productive oxygen consumption, or oxidative inactivation of enzyme itself. Multiple activity assays will provide useful information to analyze those situations. To achieve this goal, besides the oxygen consumption assay, we have also developed a ^1H-NMR assay to directly monitor the product formation (FIG. 3-II). In ^1H-NMR, the chemical shifts of the imidazole H-atoms in both the products (3 and 6, FIG. 3-II) and the substrates (1 and 2) are well-separated from the rest of the reaction mixture. Thus, the reaction mixture can be analyzed routinely without the need of a product separation. In FIG. 3-II-B (OvoA catalysis), the signals with chemical shifts at 6.93 ppm and 7.70 ppm are assigned to the two histidine imidazole H-atoms. The signal at 7.83 ppm is from the imidazole H-atom of the oxidative coupling product 6. While for the oxidative product 3 (EgtB catalysis), its imidazole H-atom has a chemical shift of 7.10 ppm (FIG. 3-II-B). […]

[2] = system: N[C@@H](CS)C(=O)O; assay: as above; type: biochemical, Erwinia tasmaniensis; details: other: air-saturated HEPES buffer; coupling with hercynine (2)
Description: as §1, §2

[3] = target: OvoA (Erwinia tasmaniensis, UniProt B2VFD8); assay: as above; type: biochemical; details: air-saturated HEPES buffer
Description: as §1, §2

[4] = target: EgtB (Mycolicibacterium smegmatis, UniProt A0R5N0); assay: EgtB activity using hercynine (2) and Cys as substrates; type: biochemical, Mycobacterium smegmatis
Description: as §1
According to the initial reports from Seebeck,^[9-10] EgtB and OvoA distinguish themselves from each other by both their substrate preferences and their product C—S bond regio-selectivity (FIG. 1). The C—S bond in ergothioneine (5) is located at the histidine ε-carbon, while for ovothiol, the C—S bond is located at the histidine δ-carbon (8). Their substrate preferences are also different. […]

[5] = target: T1, NcEgt-1 (Neurospora crassa, UniProt Q7RX33); assay: NcEgt-1 catalysed oxidative coupling of hercynine (2) and Cys to form 4; type: biochemical
T1 sequence (Q7RX33 whole entry, looked up): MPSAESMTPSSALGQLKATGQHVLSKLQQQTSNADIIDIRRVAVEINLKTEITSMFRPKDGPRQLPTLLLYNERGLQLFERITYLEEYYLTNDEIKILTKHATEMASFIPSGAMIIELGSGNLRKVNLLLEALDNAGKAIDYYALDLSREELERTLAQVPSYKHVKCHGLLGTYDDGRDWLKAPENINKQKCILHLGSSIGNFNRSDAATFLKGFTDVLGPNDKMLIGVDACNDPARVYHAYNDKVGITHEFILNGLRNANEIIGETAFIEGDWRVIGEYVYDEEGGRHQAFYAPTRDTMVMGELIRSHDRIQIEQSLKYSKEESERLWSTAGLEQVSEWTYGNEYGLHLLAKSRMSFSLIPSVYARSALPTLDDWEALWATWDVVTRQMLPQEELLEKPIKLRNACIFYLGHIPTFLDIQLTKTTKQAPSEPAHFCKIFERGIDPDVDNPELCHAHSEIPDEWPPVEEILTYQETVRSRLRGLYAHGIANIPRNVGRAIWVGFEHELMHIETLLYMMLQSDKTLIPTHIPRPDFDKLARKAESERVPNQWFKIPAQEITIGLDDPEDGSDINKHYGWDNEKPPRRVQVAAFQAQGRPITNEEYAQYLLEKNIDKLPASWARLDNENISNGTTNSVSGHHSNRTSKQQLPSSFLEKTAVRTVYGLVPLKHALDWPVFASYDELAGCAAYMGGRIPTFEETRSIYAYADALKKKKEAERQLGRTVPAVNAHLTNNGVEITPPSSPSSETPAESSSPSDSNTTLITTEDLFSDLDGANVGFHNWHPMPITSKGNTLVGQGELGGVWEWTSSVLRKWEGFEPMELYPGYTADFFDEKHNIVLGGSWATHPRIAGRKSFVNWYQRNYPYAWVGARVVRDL
Description: In the above section, we have successfully solved the EgtE problems, which enable ergothioneine production through metabolic engineering. However, the original ergothioneine biosynthetic pathway (FIG. 1A) is not efficient. To solve this problem, we initiated the search for enzymes that can oxidatively couples hercynine (2) and Cys directly as outlined in FIG. 2. Two of such enzymes (OvoA in FIG. 1B and NcEgt-1 from Neurospora crassa^[13]) have been identified by a combination of bioinformatics analysis and activity analysis using oxygen and ^1H-NMR assays.
Based on this exciting discovery, we have also examined another protein NcEgt-lfrom Neurospora crassa^[13].

Question: OvoA (Erwinia tasmaniensis Et1/99) was tested. Which Km [1] did it give?
Answer: 395 ± 30 µM

Question: And the Km [2]?
Answer: 3190 ± 410 µM

Question: With `C[N+](C)(C)[C@@H](Cc1cnc[nH]1)C(=O)[O-]` [hercynine] as the molecule, how does the “kcat for the oxidative coupling between Cys and hercynine (2)” value [3] read?
Answer: 4.5 ± 0.083 s⁻¹

Question: `N[C@@H](CS)C(=O)O` [Cys, cysteine] was tested. Which “recognition as substrate by EgtB” value [4] did it give?
Answer: cannot recognize Cys as the substrate

B1: NcEgt-1: enzyme from Neurospora crassa that catalyzes oxidative coupling of hercynine and cysteine (protein)
chain: MPSAESMTPSSALGQLKATGQHVLSKLQQQTSNADIIDIRRVAVEINLKTEITSMFRPKDGPRQLPTLLLYNERGLQLFERITYLEEYYLTNDEIKILTKHATEMASFIPSGAMIIELGSGNLRKVNLLLEALDNAGKAIDYYALDLSREELERTLAQVPSYKHVKCHGLLGTYDDGRDWLKAPENINKQKCILHLGSSIDKVGITHEFILNGLRNANEIIGETAFIEGDWRVIGEYVYDEEGGRHQAFYAPTRDTMVMGELIRSHDRIQIEQSLKYSKEESERLWSTAGLEQVSEWTYGNEYGLHLLAKSRMSFSLIPSVYARSALPTLDDWEALWATWDVVTRQMLPQEELLEKPIKLRNACIFYLGHIPTFLDIQLTKTTKQAPSEPAHFCKIFERGIDPDVDNPELCHAHSEIPDEWPPVEEILTYQETVRSRLRGLYAHGIANIPRNVGRAIWVGFEHELMHIETLLYMMLQSDKTLIPTHIPRPDFDKLARKAESERVPNQWFKIPAQEITIGLDDPEDGSDINKHYGWDNEKPPRRVQVAAFQAQGRPITNEEYAQYLLEKNIDKLPASWARLDNENISNGTTNSVSGHHSNRTSKQQLPSSFLEKTAVRTVYGLVPLKHALDWPVFASYDELAGCAAYMGGRIPTFEETRSIYAYADALKKKKEAERQLGRTVPAVNAHLTNNGVEITPPSSPSSETPAESSSPSDSNTTLITTEDLFSDLDGANVGFHNWHPMPITSKGNTLVGQGELGGVWEWTSSVLRKWEGFEPMELYPGYTADFFDEKHNIVLGGSWATHPRIAGRKSFVNWYQRNYPYAWVGARVVRDL
modifications: Neurospora crassa OR74A
notes: enzyme from Neurospora crassa that catalyzes oxidative coupling of hercynine and cysteine
Question: For B1, which “activity of 2→4 conversion compared with OvoA” value [5] is on record?
Answer: same order of magnitude as OvoA
